Columns and labels:
[1] = biological target: RSV F glycoprotein on GFP-expressing RSV (respiratory syncytial virus) (UniProt P03420)
[2] = biological target: RSV F0 Fd (respiratory syncytial virus, strain A2) (UniProt P03420); experiment: densitometry of SDS-PAGE of the gel filtration complex peak

Substance | EC50 (read off the curve), neutralization of GFP-expressing RSV on HEp-2 cells, flow cytometry [1] | Fabs per trimer (Fabs per trimer) [2]
SYNAGIS® IgG (palivizumab) (antibody) | 0.5 nM | 
palivizumab Fab |  | 2.97

— patent US20120315270A1
